Test results: patent US20210341478A1 (ANTAIMMU BIOMED, published 2021)

Target: T1, nucleocapsid protein of SARS-CoV-2 expressed in HEK-293 cells (SARS-CoV-2, UniProt P0DTC9 1-419)
T1 construct: also called 293-NP; 293-NP cell lysates
Experiment: ELISA on HEK-293 lysate 293-NP (FIG. 3)

Binder | binding result
NP-4 IgG (antibody, V domains shown) VH: EVQLVESGGGLVQPGGSLRLSCAASGFTITNWWIHWVRQAPGKGLEWVAAISPFNGKTHYADSVKGRFTISADTSKNTAYLQMNSLRAEDTAVYYCARLLSIYDYWGQGTLVTVSS VL: DIQMTQSPSSLSASVGDRVSITCRASQDVWYYVAWYQQKPGKAPKLLISRTNWLDSGVPSRFSGSGSGTDFTLTISSLQPEDFATYYCQQYSDYPLTFGQGTKVEIKR | binds
NP-3 IgG (antibody, V domains shown) VH: EVQLVESGGGLVQPGGSLRLSCAASGFTITDYGIHWVRQAPGKGLEWVAYIGPSDGDTHYADSVKGRFTISADTSKNTAYLQMNSLRAEDTAVYYCARTGGYNSWYMDYWGQGTLVTVSS VL: DIQMTQSPSSLSASVGDRVTITCRASQDVNNWVAWYQQKPGKAPKLLIYFTSYLYSGVPSRFSGSGSGTDFTLTISSLQPEDFATYYCQQHSTYPFTFGQGTKVEIKR | binds
